This is an account of results in patent publication US20250154275A1 (SHANGHAI JUNSHI BIOSCIENCES, published 2025).

In test [1] the target is T1, CD20 on the surface of Raji cells (human, UniProt P11836 1-297).
T1 construct: whole, on cells; Raji cells are described as human B lymphoma cells, CD20 positive; also called human CD20
T1 sequence (looked up): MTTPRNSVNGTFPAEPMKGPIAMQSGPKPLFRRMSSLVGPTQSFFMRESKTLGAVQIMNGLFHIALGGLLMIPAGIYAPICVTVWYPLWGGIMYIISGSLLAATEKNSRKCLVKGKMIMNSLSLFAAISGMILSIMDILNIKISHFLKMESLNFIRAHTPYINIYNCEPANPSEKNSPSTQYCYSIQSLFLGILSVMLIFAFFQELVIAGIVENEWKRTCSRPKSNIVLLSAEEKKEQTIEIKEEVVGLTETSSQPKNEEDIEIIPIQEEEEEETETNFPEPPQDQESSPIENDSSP
Briefly: flow cytometry on Raji cells (CD20 positive), MFI dose curve. (In general: Flow cytometry measures light scatter and fluorescence of single cells or particles in a stream.)

For test [2], the target named is T2, human CD3 on the surface of Jurkat cells (human, UniProt P07766 23-207; P04234 22-171; P09693 23-182).
T2 construct: whole, on cells
Description: flow cytometry on Jurkat cells (CD3-positive), MFI dose curve.

For test [3], the target named is T1, CD20 on the surface of Raji cells. Description: flow cytometry on Raji cells (CD20 positive), fluorescent secondary antibody, µg/mL is the unit of the axis; fit value of a flat curve.
The target in test [4] is T3, cynomolgus monkey CD3e overexpressed on the surface of CHO cells (cynomolgus monkey, UniProt Q95LI5 22-198).
T3 construct: whole, on cells; also called CHO Cyno CD3e cells
Briefly: flow cytometry on CHO cells overexpressing cynomolgus monkey CD3e, fluorescent secondary antibody.

Test [5] addresses T4, recombinant human CD3ε (Novoprotein, C578) (human, UniProt P07766 23-126).
T4 construct: Bought protein coated on the ELISA plate
Description: ELISA, plate coated with recombinant human CD3ε, anti-human IgG4 Fc-HRP detection.

Test [6] addresses T3, cynomolgus monkey CD3e overexpressed on …. Description: flow cytometry on CHO cells overexpressing cynomolgus monkey CD3e.

T2 sequence (P07766 23-207, chain 1 of 3): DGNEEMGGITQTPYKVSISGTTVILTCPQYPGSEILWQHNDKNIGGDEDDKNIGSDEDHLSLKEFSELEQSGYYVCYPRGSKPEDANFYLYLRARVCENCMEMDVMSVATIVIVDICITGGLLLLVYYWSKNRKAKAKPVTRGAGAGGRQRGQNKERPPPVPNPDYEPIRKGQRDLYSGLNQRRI
T2 sequence (P04234 22-171, chain 2 of 3): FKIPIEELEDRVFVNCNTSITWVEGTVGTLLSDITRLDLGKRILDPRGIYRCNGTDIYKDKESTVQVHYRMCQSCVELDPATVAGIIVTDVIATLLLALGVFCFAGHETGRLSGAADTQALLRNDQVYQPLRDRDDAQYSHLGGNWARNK
T2 sequence (P09693 23-182, chain 3 of 3): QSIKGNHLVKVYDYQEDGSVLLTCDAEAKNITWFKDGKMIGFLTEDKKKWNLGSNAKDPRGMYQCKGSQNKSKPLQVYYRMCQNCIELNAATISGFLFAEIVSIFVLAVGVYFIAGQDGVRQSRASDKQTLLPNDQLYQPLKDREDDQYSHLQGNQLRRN
T3 sequence (Q95LI5 22-198): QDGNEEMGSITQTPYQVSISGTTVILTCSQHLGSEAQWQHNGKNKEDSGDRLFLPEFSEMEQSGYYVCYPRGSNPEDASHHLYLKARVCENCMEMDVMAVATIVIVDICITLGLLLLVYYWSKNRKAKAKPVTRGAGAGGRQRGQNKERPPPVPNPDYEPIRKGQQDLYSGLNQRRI
T4 sequence (P07766 23-126 limits assumed): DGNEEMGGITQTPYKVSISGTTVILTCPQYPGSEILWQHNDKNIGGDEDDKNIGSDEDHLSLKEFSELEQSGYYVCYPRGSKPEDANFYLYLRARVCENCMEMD

With “REGN1979 (Regeneron Pharmaceuticals) (bispecific antibody)”, the EC50 (in general, the concentration giving half of the maximal effect) in test [1] worked out at 30.1 µg/mL; in test [2], 4.7 µg/mL.
Anti-KLH IgG4 (antibody) displayed an EC50 in test [3] of 52 µg/mL.

B1: JSCD3 (antibody, human IgG4 S228P, kappa, V domains shown)
VH: EVQLVESGGGLVQPGGSLKLSCAASGFTFSTYAMNWVRQAPGKGLEWVGRIRSKYNNYATYYADSVKDRFTISRDDSKNSLYLQMNSLKTEDTAVYYCVRHGNFGNSYVSWFAYWGQGTLVTVSS
VL: QAVVTQEPSLTVSPGGTVTLTCRSSTGAVTTSNYANWVQQKPGQAPRGLIGGTNKRAPGTPARFSGSLLGGKAALTLSGVQPEDEAEYYCALWYSNLWVFGGGTKLTVLR
notes: humanized from murine SP34; also called humanized anti-CD3 antibody JSCD3; positive control
Consider B1, for which, in test [4], the binding result is “binds”.

B2: bispecific antibody molecule TZT6 (bispecific antibody, human IgG4 S228P, kappa)
heavy: QVQLVQSGAEVKKPGSSVKVSCKASGYAFSYSWINWVRQAPGQGLEWMGRIFPGDGDTDYNGKFKGRVTITADKSTSTAYMELSSLRSEDTAVYYCARNVFDGYWLVYWGQGTLVTVSSASTKGPSVFPLAPCSRSTSESTAALGCLVKDYFPEPVTVSWNSGALTSGVHTFPAVLQSSGLYSLSSVVTVPSSSLGTKTYTCNVDHKPSNTKVDKRVESKYGPPCPPCPAPEFLGGPSVFLFPPKPKDTLMISRTPEVTCVVVDVSQEDPEVQFNWYVDGVEVHNAKTKPREEQFNSTYRVVSVLTVLHQDWLNGKEYKCKVSNKGLPSSIEKTISKAKGQPREPQVYTLPPCQEEMTKNQVSLWCLVKGFYPSDIAVEWESNGQPENNYKTTPPVLDSDGSFFLYSRLTVDKSRWQEGNVFSCSVMHEALHNHYTQKSLSLSLGK
light: DIVMTQTPLSLPVTPGEPASISCRSSKSLLHSNGITYLYWYLQKPGQSPQLLIYQMSNLVSGVPDRFSGSGSGTDFTLKISRVEAEDVGVYYCAQNLELPYTFGGGTKVEIKRTVAAPSVFIFPPSDEQLKSGTASVVCLLNNFYPREAKVQWKVDNALQSGNSQESVTEQDSKDSTYSLSSTLTLSKADYEKHKVYACEVTHQGLSSPVTKSFNRGEC
chain: QAVVTQEPSLTVSPGGTVTLTCRSSTGAVTTSNYANWVQQKPGQAPRGLIGGTNKRAPGTPARFSGSLLGGKAALTLSGVQPEDEAEYYCALWYSNLWVFGCGTKLTVLGGGGSGGGGSGGGGSGGGGSEVQLVESGGGLVQPGGSLKLSCAASGFTFSTYAMNWVRQAPGKCLEWVGRIRSKYNNYATYYADSVKDRFTISRDDSKNSLYLQMNSLKTEDTAVYYCVRHGNFGNSYVSWFAYWGQGTLVTVSSGGGGSGGGGSESKYGPPCPPCPAPEFLGGPSVFLFPPKPKDTLMISRTPEVTCVVVDVSQEDPEVQFNWYVDGVEVHNAKTKPREEQFNSTYRVVSVLTVLHQDWLNGKEYKCKVSNKGLPSSIEKTISKAKGQPREPQVCTLPPSQEEMTKNQVSLSCAVKGFYPSDIAVEWESNGQPENNYKTTPPVLDSDGSFFLVSRLTVDKSRWQEGNVFSCSVMHEALHNRFTQKSLSLSLGK
notes: also called anti-CD3/CD20 bispecific antibody TZT6
For B2, the results for the EC50 in test [5], in test [1] and in test [2] were 0.0214 µg/mL, 3.67 µg/mL and 4.44 µg/mL, respectively. Moreover, the binding result in test [6] is “binds”.

B3: bispecific antibody molecule TZT7 (bispecific antibody, human IgG4 S228P, kappa)
heavy: QVQLVQSGAEVKKPGSSVKVSCKASGYAFSYSWINWVRQAPGQGLEWMGRIFPGDGDTDYNGKFKGRVTITADKSTSTAYMELSSLRSEDTAVYYCARNVFDGYWLVYWGQGTLVTVSSASTKGPSVFPLAPCSRSTSESTAALGCLVKDYFPEPVTVSWNSGALTSGVHTFPAVLQSSGLYSLSSVVTVPSSSLGTKTYTCNVDHKPSNTKVDKRVESKYGPPCPPCPAPEFLGGPSVFLFPPKPKDTLMISRTPEVTCVVVDVSQEDPEVQFNWYVDGVEVHNAKTKPREEQFNSTYRVVSVLTVLHQDWLNGKEYKCKVSNKGLPSSIEKTISKAKGQPREPQVCTLPPSQEEMTKNQVSLSCAVKGFYPSDIAVEWESNGQPENNYKTTPPVLDSDGSFFLVSRLTVDKSRWQEGNVFSCSVMHEALHNRFTQKSLSLSLGK
light: DIVMTQTPLSLPVTPGEPASISCRSSKSLLHSNGITYLYWYLQKPGQSPQLLIYQMSNLVSGVPDRFSGSGSGTDFTLKISRVEAEDVGVYYCAQNLELPYTFGGGTKVEIKRTVAAPSVFIFPPSDEQLKSGTASVVCLLNNFYPREAKVQWKVDNALQSGNSQESVTEQDSKDSTYSLSSTLTLSKADYEKHKVYACEVTHQGLSSPVTKSFNRGEC
chain: QVQLVQSGAEVKKPGSSVKVSCKASGYAFSYSWINWVRQAPGQGLEWMGRIFPGDGDTDYNGKFKGRVTITADKSTSTAYMELSSLRSEDTAVYYCARNVFDGYWLVYWGQGTLVTVSSASTKGPSVFPLAPCSRSTSESTAALGCLVKDYFPEPVTVSWNSGALTSGVHTFPAVLQSSGLYSLSSVVTVPSSSLGTKTYTCNVDHKPSNTKVDKRVASGGGGSGGGGSQAVVTQEPSLTVSPGGTVTLTCRSSTGAVTTSNYANWVQQKPGQAPRGLIGGTNKRAPGTPARFSGSLLGGKAALTLSGVQPEDEAEYYCALWYSNLWVFGCGTKLTVLGGGGSGGGGSGGGGSGGGGSEVQLVESGGGLVQPGGSLKLSCAASGFTFSTYAMNWVRQAPGKCLEWVGRIRSKYNNYATYYADSVKDRFTISRDDSKNSLYLQMNSLKTEDTAVYYCVRHGNFGNSYVSWFAYWGQGTLVTVSSGGGGSGGGGSESKYGPPCPPCPAPEFLGGPSVFLFPPKPKDTLMISRTPEVTCVVVDVSQEDPEVQFNWYVDGVEVHNAKTKPREEQFNSTYRVVSVLTVLHQDWLNGKEYKCKVSNKGLPSSIEKTISKAKGQPREPQVYTLPPCQEEMTKNQVSLWCLVKGFYPSDIAVEWESNGQPENNYKTTPPVLDSDGSFFLYSRLTVDKSRWQEGNVFSCSVMHEALHNHYTQKSLSLSLGK
notes: IgG4 Fc (G4 FC in the vector's name); also called anti-CD3/CD20 bispecific antibody TZT7
In the case of B3, the values for the concentration giving a half-maximal response (EC50) in test [5], in test [1] and in test [2] were 0.0856 µg/mL, 0.515 µg/mL and 26.6 µg/mL, respectively. Besides, the binding result in test [6] is on record as “binds”.
